These results are taken from US12528864.

B1: 42Y073-1A01-100 (antibody, V domains shown)
VH: QVQLVQSGAEVKKPGASVKVSCKASGYTFTTYRMHWVRQAPGQGLEWMGIINPSGGLTQYAQKFQGRVTMTRDTSTSTVYMELSSLRSEDTAVYYCARETAYYTTKGNWFDPWGQGTLVTVSS
VL: DIQMTQSPSSLSASVGDRVTITCRASQSISSYLNWYQQKPGKAPKLLIYAASSLQSGVPSRFSGSGSGTDFTLTISSLQPEDFATYYCQQSLYPPRTFGGGTKVEIK
B2: 42Y073-86F04-5 (antibody, V domains shown)
VH: QVQLVQSGAEVKKPGSSVKVSCKASGGTFSSHAISWVRQAPGQGLEWMGGIIPIFGRGKYAQKFQGRVTITADESTSTAYMELSSLRSEDTAVYYCARLLGESGMDVWGQGTTVTVSS
VL: DIQMTQSPSSLSASVGDRVTITCRASQSISSYLNWYQQKPGKAPKLLIYAASSLQSGVPSRFSGSGSGTDFTLTISSLQPEDFATYYCQQPYFSPPTFGGGTKVEIK
B3: 42Y073-86F04-6 (antibody, V domains shown)
VH: QVQLVQSGAEVKKPGSSVKVSCKASGGTFSGHAISWVRQAPGQGLEWMGGIIPIFGRARYAQKFQGRVTITADESTSTAYMELSSLRSEDTAVYYCARLLGESGMDVWGQGTTVTVSS
VL: DIQMTQSPSSLSASVGDRVTITCRASQSISSYLNWYQQKPGKAPKLLIYAASSLQSGVPSRFSGSGSGTDFTLTISSLQPEDFATYYCQQPYFSPPTFGGGTKVEIK
B4: 42Y073-86F04-4 (antibody, V domains shown)
VH: QVQLVQSGAEVKKPGSSVKVSCKASGGTFESEAISWVRQAPGQGLEWMGGIIPIFGRARYAQKFQGRVTITADESTSTAYMELSSLRSEDTAVYYCARLLGESGMDVWGQGTTVTVSS
VL: DIQMTQSPSSLSASVGDRVTITCRASQSISSYLNWYQQKPGKAPKLLIYAASSLQSGVPSRFSGSGSGTDFTLTISSLQPEDFATYYCQQPYFSPPTFGGGTKVEIK
B5: 42Y073-86F04-3 (antibody, V domains shown)
VH: QVQLVQSGAEVKKPGSSVKVSCKASGGTFSYNAISWVRQAPGQGLEWMGGIIPIMGTARYAQKFQGRVTITADESTSTAYMELSSLRSEDTAVYYCARLLGESGMDVWGQGTTVTVSS
VL: DIQMTQSPSSLSASVGDRVTITCRASQSISSYLNWYQQKPGKAPKLLIYAASSLQSGVPSRFSGSGSGTDFTLTISSLQPEDFATYYCQQPYFSPPTFGGGTKVEIK
B6: 42Y073-86F04-18 (antibody, V domains shown)
VH: QVQLVQSGAEVKKPGSSVKVSCKASGGTFSSRAISWVRQAPGQGLEWMGGIIPIMGTARYAQKFQGRVTITADESTSTAYMELSSLRSEDTAVYYCARLLGESGMDVWGQGTTVTVSS
VL: DIQMTQSPSSLSASVGDRVTITCRASQSISSYLNWYQQKPGKAPKLLIYAASSLQSGVPSRFSGSGSGTDFTLTISSLQPEDFATYYCQQPYFSPPTFGGGTKVEIK
B7: 42Y073-1A01-85 (antibody, V domains shown)
VH: QVQLVQSGAEVKKPGASVKVSCKASGYTFTSYPMHWVRQAPGQGLEWMGIINPSGGFTSYAQKFQGRVTMTRDTSTSTVYMELSSLRSEDTAVYYCARETAYYTTKGNWFDPWGQGTLVTVSA
VL: DIQMTQSPSSLSASVGDRVTITCRASQSISSYLNWYQQKPGKAPKLLIYAASSLQSGVPSRFSGSGSGTDFTLTISSLQPEDFATYYCQQSLYPPRTFGGGTKVEIK
B8: 42Y073-1A01-103 (antibody, V domains shown)
VH: QVQLVQSGAEVKKPGASVKVSCKASGYTFTAYQMHWVRQAPGQGLEWMGIINPAGGWTSYAQKFQGRVTMTRDTSTSTVYMELSSLRSEDTAVYYCARETAYYTTKGNWFDPWGQGTLVTVSS
VL: DIQMTQSPSSLSASVGDRVTITCRASQSISSYLNWYQQKPGKAPKLLIYAASSLQSGVPSRFSGSGSGTDFTLTISSLQPEDFATYYCQQSLYPPRTFGGGTKVEIK
B9: 42Y073-1A01-191 (antibody, V domains shown)
VH: QVQLVQSGAEVKKPGASVKVSCKASGYTFTKYRMHWVRQAPGQGLEWMGIINPQGGSTSYAQKFQGRVTMTRDTSTSTVYMELSSLRSEDTAVYYCARETAYYTTKGNWFDPWGQGTLVTVSA
VL: DIQMTQSPSSLSASVGDRVTITCRASQSISSYLNWYQQKPGKAPKLLIYAASSLQSGVPSRFSGSGSGTDFTLTISSLQPEDFATYYCQQSLYPPRTFGGGTKVEIK
B10: 42Y073-86F08-3 (antibody, V domains shown)
VH: QVQLVQSGAEVKKPGSSVKVSCKASGGTFVNYAISWVRQAPGQGLEWMGGIIPALGTANYAQKFQGRVTITADESTSTAYMELSSLRSEDTAVYYCARGAGYYGDKDPMDVWGQGTTVTVSS
VL: DIQLTQSPSSLSASVGDRVTITCRASQSISSYLNWYQQKPGKAPKLLIYAASSLQSGVPSRFSGSGSGTDFTLTISSLQPEDFATYYCQQVLHTITFGGGTKVEIK
B11: 42Y073-86F08-47 (antibody, V domains shown)
VH: QVQLVQSGAEVKKPGSSVKVSCKASGGTFSQYAIHWVRQAPGQGLEWMGVIIPIFGKANYAQKFQGRVTITADESTSTAYMELSSLRSEDTAVYYCARGAGYYGDKDPMDVWGQGTTVTVSS
VL: DIQLTQSPSSLSASVGDRVTITCRASQSISSYLNWYQQKPGKAPKLLIYAASSLQSGVPSRFSGSGSGTDFTLTISSLQPEDFATYYCQQVLHTITFGGGTKVEIK
B12: 42Y073-86F08-8 (antibody, V domains shown)
VH: QVQLVQSGAEVKKPGSSVKVSCKASGGTFWLYAISWVRQAPGQGLEWMGGIIPQLGTANYAQKFQGRVTITADESTSTAYMELSSLRSEDTAVYYCARGAGYYGDKDPMDVWGQGTTVTVSS
VL: DIQLTQSPSSLSASVGDRVTITCRASQSISSYLNWYQQKPGKAPKLLIYAASSLQSGVPSRFSGSGSGTDFTLTISSLQPEDFATYYCQQVLHTITFGGGTKVEIK
B13: 42Y073-86F08-22 (antibody, V domains shown)
VH: QVQLVQSGAEVKKPGASVKVSCKASGYTFDSYAMHWVRQAPGQGLEWMGGIIPIFGTAWYAQKFQGRVTITADESTSTAYMELSSLRSEDTAVYYCARGAGYYGDKDPMDVWGQGTTVTVSS
VL: DIQLTQSPSSLSASVGDRVTITCRASQSISSYLNWYQQKPGKAPKLLIYAASSLQSGVPSRFSGSGSGTDFTLTISSLQPEDFATYYCQQVLHTITFGGGTKVEIK
B14: 42Y073-86F08-17 (antibody, V domains shown)
VH: QVQLVQSGAEVKKPGSSVKVSCKASGGTFREYAISWVRQAPGQGLEWMGGIIPVFGTANYAQKFQGRVTITADESTSTAYMELSSLRSEDTAVYYCARGAGYYGDKDPMDVWGQGTTVTVSS
VL: DIQLTQSPSSLSASVGDRVTITCRASQSISSYLNWYQQKPGKAPKLLIYAASSLQSGVPSRFSGSGSGTDFTLTISSLQPEDFATYYCQQVLHTITFGGGTKVEIK
B15: 42Y073-86F08-4 (antibody, V domains shown)
VH: QVQLVQSGAEVKKPGSSVKVSCKASGGTFSEYAIHWVRQAPGQGLEWMGNIIPIFGTAGYAQKFQGRVTITADESTSTAYMELSSLRSEDTAVYYCARGAGYYGDKDPMDVWGQGTTVTVSS
VL: DIQLTQSPSSLSASVGDRVTITCRASQSISSYLNWYQQKPGKAPKLLIYAASSLQSGVPSRFSGSGSGTDFTLTISSLQPEDFATYYCQQVLHTITFGGGTKVEIK

By EC50 is commonly meant the concentration at which the effect is half-maximal. Read a low EC50 as greater potency.

For this experiment, the target named is human CD96, native, on primary human T cells (human) (UniProt P40200). Put plainly: flow cytometry on primary human CD3+ T cells.
In turn, B1 gave an EC50 of 10 pM.
Under B2 stands 50 pM; under B3, 10 pM; under B4, 50 pM.
As for B5, the EC50 stood at 90 pM.
Regarding B6, the EC50 stood at 10 pM. This EC50 lies about 9-fold lower than the previous one.
In turn, B7 returned an EC50 of 320 pM. Against the preceding molecule, the EC50 is about 32-fold higher.
In the case of B8, the EC50 came to 10 pM.
With B9, the EC50 turned out to be 380 pM.
In turn, B10 came in with an EC50 of 50 pM. This EC50 lies about 7.6-fold lower than the previous one.
B11: the EC50 stood at 30 pM. Against the preceding molecule, the EC50 is about 1.7-fold lower.
With B12, the EC50 amounted to 40 pM.
For B13 the value was 180 pM; for B14, 10 pM.
On to B15, for which the 50% effective concentration (EC50) was determined as 10 pM.
